Measured values taken from PMC8441738 (MedComm, 2021).

B1: MA5 monoclonal antibody (antibody, V domains shown)
VH: EVMLVESGGGLVKPGGSLKLSCAASGFMFSRYAMSWVRQTPEKRLEWVATISSGGSYTYYPDSVKGRFTMSRDNAKNTLYLQMSSLRSEDTAMYNCARHDGNYVDYAMDYWGQGTSVTVSS
VL: QIVLTQSPAIMSASLGEEITLTCSASSSVSHMHWYQQKSGTSPKLLIYSTFNLASGVPSRFSGSGSGTFYSLTISSVEAEDAADYYCHQWSSWTFGGGTKLEIK
notes: also called group IV mAb; source: hybridoma cell line or transfection of linear expression cassettes
B2: MA1 monoclonal antibody (antibody, V domains shown)
VH: QVQLKESGPGLVAPSQSLSITCTVSGFSLSDYSISWIRQPPGKGLEWLGVIWGGGSTYYNSALKSRLSISKDNSKSQVFLKMNSLQTDDTAMYYCAKHPLYYGSNSDGYYAMDYWGQGTSVTVSS
VL: DIVMTQSHKFMSTSVGDRVSITCKASQDVGIVVAWYQQKPGQSPKLLIYWASTRHTGVPDRFTGSGSGTDFTLTISNVQSEDLADYFCQQYSSYPLTFGGGTKLEIK
notes: also called group I mAb; source: hybridoma cell line or transfection of linear expression cassettes

Biological target: recombinant SARS-CoV-2 RBD-Fc (Severe acute respiratory syndrome …, UniProt P0DTC2)
Assay: ELISA; natural RBD-Fc immobilised on ELISA plates

| Binder | binding result |
| --- | --- |
| B1 | binds |
| B2 | binds |
